Measured values taken from paper PMC8809517, “Cofactor-independent RNA editing by a synthetic S-type PPR protein”.
Numbering of substitutions follows the chain as printed.

Columns and labels:
Experiment in all cases: high-throughput RNA pulldown from lysate on Ni-NTA beads; HRP: 50 mM Tris pH 8, 150 mM NaCl, 1 mM beta-mercaptoethanol, 50 ug/ml BSA, 3 ug/ml yeast RNA, 0.5% heparin; ITC and FP: Tris pH 8, 200 mM KCl, 5% glycerol; MST: 50 mM Tris pH 8, 200 mM NaCl, 1 mM DTT, BSA, heparin, 0.05% Tween 20
Settings in all cases: tags: N-terminal His-eGFP
[1] = target: T1, GFP-9S library array, motif 4 ND N98F;D124L (synthetic construct, N98F;D124L)
T1 chain: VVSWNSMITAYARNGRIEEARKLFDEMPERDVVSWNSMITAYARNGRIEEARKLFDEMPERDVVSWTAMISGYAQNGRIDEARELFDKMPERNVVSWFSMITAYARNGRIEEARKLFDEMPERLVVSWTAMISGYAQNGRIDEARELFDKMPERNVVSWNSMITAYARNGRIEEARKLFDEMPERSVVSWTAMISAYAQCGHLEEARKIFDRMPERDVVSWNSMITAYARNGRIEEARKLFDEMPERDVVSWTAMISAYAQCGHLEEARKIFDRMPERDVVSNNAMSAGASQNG

[2] = target: T2, GFP-9S library array, motif 4 ND N98L;D124T (synthetic construct, N98L;D124T)
T2 chain: T1 chain with F98L, L124T

[3] = target: T3, GFP-9S library array, motif 4 ND N98A;D124Y (synthetic construct, N98A;D124Y)
T3 chain: T1 chain with F98A, L124Y

[4] = target: T4, GFP-9S library array, motif 4 ND N98Q;D124N (synthetic construct, N98Q;D124N)
T4 chain: T1 chain with F98Q, L124N

[5] = target: T5, GFP-9S library array, motif 4 ND N98A;D124R (synthetic construct, N98A;D124R)
T5 chain: T1 chain with F98A, L124R

Binder: AUUACACGUGA (ssRNA) [Cy5-rpoA]
- Kd ([1]; label: 5' Cy5): 76.3 nM
- Kd ([2]; label: 5' Cy5): 103 nM
- Kd ([3]; label: 5' Cy5): 82.5 nM
- Kd ([4]; label: 5' Cy5): 94.7 nM
- Kd ([5]; label: 5' Cy5): 178 nM

Binder: AUUAAACGUGA (ssRNA) [IR-rpoA-A]
- Kd ([1]; label: 5' IRDye 800CW): 232 nM
- Kd ([2]; label: 5' IRDye 800CW): 171 nM
- Kd ([3]; label: 5' IRDye 800CW): 172 nM
- Kd ([4]; label: 5' IRDye 800CW): 118 nM
- Kd ([5]; label: 5' IRDye 800CW): 254 nM

Binder: AUUAGACGUGA (ssRNA) [Cy5-rpoA-G]
- Kd ([1]; label: 5' Cy5): 90.2 nM
- Kd ([2]; label: 5' Cy5): 206 nM
- Kd ([3]; label: 5' Cy5): 68.5 nM
- Kd ([4]; label: 5' Cy5): 68.6 nM
- Kd ([5]; label: 5' Cy5): 166 nM

Binder: AUUAUACGUGA (ssRNA) [IR-rpoA-U]
- Kd ([1]; label: 5' IRDye 800CW): 166 nM
- Kd ([2]; label: 5' IRDye 800CW): 19 nM
- Kd ([3]; label: 5' IRDye 800CW): 175 nM
- Kd ([4]; label: 5' IRDye 800CW): 99.2 nM
- Kd ([5]; label: 5' IRDye 800CW): 160 nM
